# Assay results as given in US20040253247A1 (Genentech, published 2004).
# Bridges are numbered along the chain shown (N, C = ends).
# T1: ovalbumin (UniProt P01012 2-386)
# T1 sequence (looked up): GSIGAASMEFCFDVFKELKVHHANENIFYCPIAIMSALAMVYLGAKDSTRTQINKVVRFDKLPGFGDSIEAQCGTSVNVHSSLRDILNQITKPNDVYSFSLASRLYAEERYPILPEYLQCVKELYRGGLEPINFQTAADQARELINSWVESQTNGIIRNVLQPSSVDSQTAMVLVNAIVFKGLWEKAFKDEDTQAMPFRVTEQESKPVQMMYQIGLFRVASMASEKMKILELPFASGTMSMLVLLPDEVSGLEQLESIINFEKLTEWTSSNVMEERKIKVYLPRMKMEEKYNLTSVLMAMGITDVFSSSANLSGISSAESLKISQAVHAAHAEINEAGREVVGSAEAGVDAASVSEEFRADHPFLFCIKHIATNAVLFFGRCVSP
# Key:
# rat albumin = rat albumin (rat, UniProt P02770 25-608); assay: phage ELISA, photograph of the plate
# rabbit albumin = rabbit albumin (rabbit, UniProt P49065 25-608); assay: phage ELISA, photograph of the plate
# mouse albumin = mouse albumin (mouse, UniProt P07724 25-608); assay: phage ELISA, photograph of the plate
# ovalbumin = target: T1, ovalbumin; assay: phage ELISA, photograph of the plate
# IgG-Fc [1] = target: T2, IgG-Fc (UniProt P01857-1 108-330 = IgG part, limits assumed); assay: synthetic peptide; method of the Kd not named
# T2 construct: domain: IgG-Fc; also called biotinylated-IgG-Fc; biotin-IgG-Fc
# IgG-Fc [2] = target: T2, IgG-Fc; assay: synthetic peptide; competition assay not given
# Sequence of rabbit albumin (P49065 25-608 limits assumed): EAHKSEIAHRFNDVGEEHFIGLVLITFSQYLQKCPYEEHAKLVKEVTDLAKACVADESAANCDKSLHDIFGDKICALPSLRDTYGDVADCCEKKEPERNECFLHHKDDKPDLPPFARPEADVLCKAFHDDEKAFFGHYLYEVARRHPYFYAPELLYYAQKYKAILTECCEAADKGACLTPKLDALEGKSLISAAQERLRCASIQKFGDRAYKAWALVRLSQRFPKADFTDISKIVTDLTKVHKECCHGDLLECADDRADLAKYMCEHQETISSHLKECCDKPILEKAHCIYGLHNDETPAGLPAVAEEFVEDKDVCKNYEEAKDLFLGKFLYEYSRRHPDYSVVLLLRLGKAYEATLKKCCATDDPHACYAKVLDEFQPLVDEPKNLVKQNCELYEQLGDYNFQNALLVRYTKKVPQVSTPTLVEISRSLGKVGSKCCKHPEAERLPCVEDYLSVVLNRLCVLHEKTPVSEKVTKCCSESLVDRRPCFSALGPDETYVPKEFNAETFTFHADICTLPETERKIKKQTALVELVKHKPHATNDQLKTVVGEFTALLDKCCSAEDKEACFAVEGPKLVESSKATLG
# Sequence of mouse albumin (P07724 25-608 limits assumed): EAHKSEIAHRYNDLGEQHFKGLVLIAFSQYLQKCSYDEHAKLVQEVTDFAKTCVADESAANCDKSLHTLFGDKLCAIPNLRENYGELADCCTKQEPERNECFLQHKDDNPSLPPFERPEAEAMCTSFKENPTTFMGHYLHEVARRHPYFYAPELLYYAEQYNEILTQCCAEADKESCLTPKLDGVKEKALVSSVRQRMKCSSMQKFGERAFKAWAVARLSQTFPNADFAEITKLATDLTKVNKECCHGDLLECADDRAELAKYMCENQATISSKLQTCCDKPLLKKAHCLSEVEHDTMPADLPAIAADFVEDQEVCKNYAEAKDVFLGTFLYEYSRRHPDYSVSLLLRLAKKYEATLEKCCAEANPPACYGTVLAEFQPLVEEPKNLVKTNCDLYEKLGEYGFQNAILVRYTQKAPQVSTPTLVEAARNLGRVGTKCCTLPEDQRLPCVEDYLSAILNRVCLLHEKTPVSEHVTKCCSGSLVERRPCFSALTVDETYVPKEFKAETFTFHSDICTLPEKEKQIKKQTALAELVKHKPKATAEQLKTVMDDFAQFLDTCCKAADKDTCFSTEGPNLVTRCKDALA
# Sequence of rat albumin (P02770 25-608 limits assumed): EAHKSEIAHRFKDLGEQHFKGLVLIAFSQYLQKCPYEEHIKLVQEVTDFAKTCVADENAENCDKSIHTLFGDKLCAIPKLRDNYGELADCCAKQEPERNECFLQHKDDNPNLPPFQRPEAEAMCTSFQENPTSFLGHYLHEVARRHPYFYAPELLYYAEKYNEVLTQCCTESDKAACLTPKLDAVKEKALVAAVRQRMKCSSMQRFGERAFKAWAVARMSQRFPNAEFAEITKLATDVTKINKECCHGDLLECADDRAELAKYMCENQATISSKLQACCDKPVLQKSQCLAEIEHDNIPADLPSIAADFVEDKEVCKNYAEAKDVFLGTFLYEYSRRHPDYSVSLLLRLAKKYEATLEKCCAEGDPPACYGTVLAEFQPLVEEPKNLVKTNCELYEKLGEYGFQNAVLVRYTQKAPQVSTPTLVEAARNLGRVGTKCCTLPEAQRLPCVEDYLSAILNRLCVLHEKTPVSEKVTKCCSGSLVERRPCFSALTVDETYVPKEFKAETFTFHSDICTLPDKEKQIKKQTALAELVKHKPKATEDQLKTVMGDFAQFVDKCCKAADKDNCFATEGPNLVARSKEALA
binder,measurement,setting,value
"EVRSFCTDWPAHYSCTSLQG (phage clone, Library HA) [HA-H74]",binding result,rat albumin,no binding
same,binding result,rabbit albumin,no binding
same,binding result,mouse albumin,no binding
same,binding result,ovalbumin,no binding
"H-DLADCSWHMGELVWCSRVEG-NH2 (disulfide 5-15 (inferred), Synthetic peptide) [peptide DLADCSWHMGELVWCSRVEG]",Kd,IgG-Fc [1],50 nM
"H-WEADCAWHLGELVWCTPMEF-NH2 (disulfide 5-15 (inferred), Synthetic peptide) [peptide WEADCAWHLGELVWCTPMEF]",IC50,IgG-Fc [2],30 nM
